Source: patent publication US20040110684A1

Key:
[1] = target: wild-type eNOS (construct expressed in COS cells) (UniProt P29474); experiment: cell-based or functional assay
[2] = target: endothelial nitric oxide synthase (eNOS), endogenous, human umbilical vein endothelial cells (HUVECs) (human) (UniProt P29474); experiment: eNOS IP, phospho-Ser473-Akt immunoblot, HUVEC lysates
[3] = target: S1177A eNOS mutant (construct expressed in COS cells) (UniProt P29474); experiment: cell-based or functional assay
Chain of S1177A eNOS mutant (construct expressed in COS cells) (P29474 2-1203 S1177A limits assumed): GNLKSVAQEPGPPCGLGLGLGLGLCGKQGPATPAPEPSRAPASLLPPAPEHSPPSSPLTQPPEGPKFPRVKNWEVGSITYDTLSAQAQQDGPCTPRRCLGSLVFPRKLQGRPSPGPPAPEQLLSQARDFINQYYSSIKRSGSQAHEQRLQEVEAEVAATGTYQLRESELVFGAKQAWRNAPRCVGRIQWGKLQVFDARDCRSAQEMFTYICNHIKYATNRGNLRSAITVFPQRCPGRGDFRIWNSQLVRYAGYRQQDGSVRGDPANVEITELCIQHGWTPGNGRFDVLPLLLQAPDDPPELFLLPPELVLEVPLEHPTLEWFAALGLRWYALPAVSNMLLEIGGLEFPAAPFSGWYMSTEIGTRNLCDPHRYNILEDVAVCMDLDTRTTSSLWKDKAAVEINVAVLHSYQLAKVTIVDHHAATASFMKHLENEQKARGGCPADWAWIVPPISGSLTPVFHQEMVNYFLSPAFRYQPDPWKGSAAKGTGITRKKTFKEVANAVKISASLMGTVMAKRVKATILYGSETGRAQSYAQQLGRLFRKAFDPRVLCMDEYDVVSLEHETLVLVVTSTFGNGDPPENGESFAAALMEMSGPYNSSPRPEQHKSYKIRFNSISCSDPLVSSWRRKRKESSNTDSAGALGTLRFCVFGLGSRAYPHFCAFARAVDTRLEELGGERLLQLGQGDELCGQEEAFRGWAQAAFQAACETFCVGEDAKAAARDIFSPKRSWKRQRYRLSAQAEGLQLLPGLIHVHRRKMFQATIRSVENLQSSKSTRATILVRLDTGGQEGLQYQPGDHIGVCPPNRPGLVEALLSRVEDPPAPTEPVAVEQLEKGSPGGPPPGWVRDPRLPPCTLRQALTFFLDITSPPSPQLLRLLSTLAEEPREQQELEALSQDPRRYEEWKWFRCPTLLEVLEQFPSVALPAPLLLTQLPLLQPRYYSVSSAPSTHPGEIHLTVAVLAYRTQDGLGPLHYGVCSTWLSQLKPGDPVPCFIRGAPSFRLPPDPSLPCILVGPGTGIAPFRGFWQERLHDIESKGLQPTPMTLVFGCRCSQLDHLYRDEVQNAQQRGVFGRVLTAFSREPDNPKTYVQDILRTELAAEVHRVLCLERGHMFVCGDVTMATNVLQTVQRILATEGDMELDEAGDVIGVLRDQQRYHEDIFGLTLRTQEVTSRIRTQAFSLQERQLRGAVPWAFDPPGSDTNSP

Chain of wild-type eNOS (construct expressed in COS cells) (P29474 2-1203 limits assumed): as the sequence (P29474 2-1203 S1177A limits assumed) above, with A1176S counted along it
Chain of endothelial nitric oxide synthase (eNOS), endogenous, human umbilical vein endothelial cells (HUVECs) (human) (P29474 2-1203 limits assumed): as the sequence (P29474 2-1203 S1177A limits assumed) above, with A1176S counted along it

Row | increase over basal level of nitrite production, COS cells co-transfected with WT-eNOS, active Akt and also recombinant hsp90 [1] [%] | fold increase of phospho-Akt enrichment in the eNOS IP, statin plus recombinant hsp90 vs statin alone [2] [fold] | Substance | increase in nitrite production, co-transfected COS cells [1] [%] | increase in nitrite production, co-transfected COS cells [3] [%]
1 | 152 | – | Myc-tagged active Akt (T308D/S473D) (from UniProt P31749 1-480) (enzyme) | 64 | –
2 | – | > 3 | phospho-Ser473-Akt, endogenous, human umbilical vein endothelial cells (HUVECs) (from UniProt P31749 1-480) (enzyme) | – | –
3 | – | – | recombinant hsp90 (expressed from hsp90 cDNA, gift of Dr W. C. Sessa) | 49 | 40
